Test results: article PMC4596688, “Structural determinants of nuclear export signal orientation in binding to exportin CRM1” (eLife, 2015)

Assays:
[1] = molecular target: Full-length human CRM1 (HsCRM1) (UniProt O14980); assay: GST pull-down, SDS/PAGE band intensity; conditions: excess ScRanGTP; triplicate experiments; parent: est. 100; read off a plot
[2] = molecular target: Full-length human CRM1 (HsCRM1) (UniProt O14980); assay: competition differential bleaching monitored with a microscale thermophoresis instrument; MBP-NESs serially diluted from 100 μM to 3 nM with 40 nM FITC-PKI^NES, mixed 1:1 with 300 nM HsCRM1 and 120 μM ScRan-GTP; TB buffer with 15% glycerol, 0.05% Tween-20; 1.5 hr, room temperature

Chain of Full-length human CRM1 (HsCRM1) (O14980 whole entry): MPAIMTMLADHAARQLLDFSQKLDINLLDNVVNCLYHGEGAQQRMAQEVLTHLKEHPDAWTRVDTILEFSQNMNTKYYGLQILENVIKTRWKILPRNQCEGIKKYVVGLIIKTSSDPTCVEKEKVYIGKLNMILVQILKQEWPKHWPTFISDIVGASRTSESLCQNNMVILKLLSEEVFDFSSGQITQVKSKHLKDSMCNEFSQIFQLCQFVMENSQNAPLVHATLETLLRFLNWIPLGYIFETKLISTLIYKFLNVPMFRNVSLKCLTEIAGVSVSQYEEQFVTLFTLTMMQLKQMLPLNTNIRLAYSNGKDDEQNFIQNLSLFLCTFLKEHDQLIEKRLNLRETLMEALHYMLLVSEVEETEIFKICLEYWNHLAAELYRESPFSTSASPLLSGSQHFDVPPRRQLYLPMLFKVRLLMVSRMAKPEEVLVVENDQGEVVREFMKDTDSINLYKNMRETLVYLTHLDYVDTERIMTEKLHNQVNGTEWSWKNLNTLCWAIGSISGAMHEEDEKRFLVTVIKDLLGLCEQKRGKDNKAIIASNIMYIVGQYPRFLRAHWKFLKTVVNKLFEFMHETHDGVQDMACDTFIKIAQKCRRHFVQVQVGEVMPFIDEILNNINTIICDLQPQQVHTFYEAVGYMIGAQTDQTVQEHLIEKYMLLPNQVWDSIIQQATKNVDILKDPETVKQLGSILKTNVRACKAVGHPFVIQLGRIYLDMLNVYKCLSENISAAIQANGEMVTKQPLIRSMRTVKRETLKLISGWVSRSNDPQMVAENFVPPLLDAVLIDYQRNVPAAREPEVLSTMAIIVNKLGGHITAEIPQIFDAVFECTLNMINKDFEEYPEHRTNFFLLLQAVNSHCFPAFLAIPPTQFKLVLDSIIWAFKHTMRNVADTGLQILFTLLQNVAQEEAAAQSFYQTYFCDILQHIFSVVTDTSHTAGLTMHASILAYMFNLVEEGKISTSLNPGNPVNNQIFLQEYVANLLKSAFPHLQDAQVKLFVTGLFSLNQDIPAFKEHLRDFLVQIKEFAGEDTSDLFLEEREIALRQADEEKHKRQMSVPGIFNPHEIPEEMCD

percent of parent [1] [%]	Kd [2] [nM]	Substance
110		GST-hRio2NES-R F13M
17		GST-hRio2NES-R F13Y
	590	MBP-CPEB4^NES (peptide)
33		GST-hRio2NES-R F13P
17		GST-hRio2NES-R F13A
	780	MBP-CPEB4^NES-R (peptide)
	2400	MBP-hRio2^NES-R (peptide)
57		GST-hRio2NES-R M11I
	2200	MBP-hRio2^NES (peptide)
80		GST-hRio2NES-R M11W

Continued, substance first:

Substance	percent of parent [1] [%]	Kd [2] [nM]
GST-hRio2NES-R M11P	15	
GST-hRio2NES-R M11V	17	
GST-hRio2NES-R M11F	53	
GST-hRio2NES-R M11Y	10	
GST-hRio2NES-R M11A	17	
GST-hRio2NES-R F13W	31	
